The target in the assay is T1, C1q (complement protein C1q, intact) (human, UniProt P02745 23-245; P02746 28-253; P02747 29-245).
T1 construct: complement C1q subunit A, human; C1q purified from human serum; a hexamer of heterotrimers; complement C1q subunit B, human; complement C1q subunit C, human; also called intact C1q; whole C1q; source: purified from human serum; copies: 6 + 6 + 6
The assay can be described thus: SPR; BIAcore 3000; PR3 immobilised on a CM5 chip by amine coupling; C1q, gC1q or cC1q as soluble analytes; 50 mM Tris, 150 mM NaCl, 2 mM Ca2+, 0.005% surfactant P20, pH 7.4; flow 20 µl/min; global fit to a 1:1 Langmuir model; apparent KD from koff/kon. The conditions noted are these: both partners purified. (In general: SPR reads the build-up and loss of mass on a sensor chip optically.)

T1 sequence (P02745 23-245, chain 1 of 3): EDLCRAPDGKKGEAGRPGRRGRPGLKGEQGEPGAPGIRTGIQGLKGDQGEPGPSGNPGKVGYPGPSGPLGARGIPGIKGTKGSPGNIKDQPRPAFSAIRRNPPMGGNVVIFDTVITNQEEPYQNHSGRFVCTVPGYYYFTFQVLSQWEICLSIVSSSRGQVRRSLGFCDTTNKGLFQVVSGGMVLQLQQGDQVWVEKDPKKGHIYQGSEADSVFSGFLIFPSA
T1 sequence (P02746 28-253, chain 2 of 3): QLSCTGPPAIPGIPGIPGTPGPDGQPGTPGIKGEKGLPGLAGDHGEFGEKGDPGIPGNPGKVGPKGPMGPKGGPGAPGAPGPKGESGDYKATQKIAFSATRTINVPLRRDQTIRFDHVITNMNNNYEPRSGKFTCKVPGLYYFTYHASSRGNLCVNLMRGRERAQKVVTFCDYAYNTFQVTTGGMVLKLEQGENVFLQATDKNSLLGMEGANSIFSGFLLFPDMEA
T1 sequence (P02747 29-245, chain 3 of 3): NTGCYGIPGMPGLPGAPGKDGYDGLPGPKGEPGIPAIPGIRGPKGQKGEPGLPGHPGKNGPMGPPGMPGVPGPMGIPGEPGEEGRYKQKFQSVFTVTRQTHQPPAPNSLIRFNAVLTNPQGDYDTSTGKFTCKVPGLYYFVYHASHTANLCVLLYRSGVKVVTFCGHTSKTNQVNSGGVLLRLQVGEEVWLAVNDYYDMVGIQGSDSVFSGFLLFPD

B1: Proteinase 3 (PR3), purified (enzyme, UniProt P24158 28-248, looked up)
chain: IVGGHEAQPHSRPYMASLQMRGNPGSHFCGGTLIHPSFVLTAAHCLRDIPQRLVNVVLGAHNVRTQEPTQQHFSVAQVFLNNYDAENKLNDVLLIQLSSPANLSASVATVQLPQQDQPVPHGTQCLAMGWGRVGAHDPPAQVLQELNVTVVTFFCRPHNICTFVPRRKAGICFGDSGGPLICDGIIQGIDSFVIWGCATRLFPDFFTRVALYVDWIRSTLR
notes: proteinase 3 (myeloblastin), neutrophil-derived serine protease; also called purified PR3; immobilized PR3; source: bought: Athens Research and Technology
The koff is a measure of how fast the partners let go of each other. Broadly, the kon is the second-order rate constant of association. With B1, the Kd came out at 190 nM, the koff worked out at 0.00151 s⁻¹ and the kon was determined as 7800 M⁻¹ s⁻¹.

For the origin of these results see article PMC5932363, “Proteinase 3 Interferes With C1q-Mediated Clearance of Apoptotic Cells” (Frontiers in Immunology, 2018).
